In patent US20240376151A1, “STAPLED PEPTIDES AND METHODS THEREOF” (FOG PHARMACEUTICALS, INC., priority 2022, published 2024):
Bridge positions count the residues as written; N and C are the ends. Ends that are not written are not given here.

Target: T1, RNF31 PUB domain (Homo sapiens, UniProt Q96EP0)
T1 construct: MBP-TEV (N, cleaved yes); made in house; host or cells: E. coli BL21 (DE3) pLysS
T1 sequence (Q96EP0 1-179): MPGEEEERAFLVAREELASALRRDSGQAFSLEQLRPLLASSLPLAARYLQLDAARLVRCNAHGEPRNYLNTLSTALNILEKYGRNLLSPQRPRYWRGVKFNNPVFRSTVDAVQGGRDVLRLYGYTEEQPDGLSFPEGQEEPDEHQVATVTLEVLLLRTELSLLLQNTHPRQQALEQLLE
Assay: Phage Library Screening with NGS, RNF31 PUB domain
Type: binding
Conditions: for Phage library screen NGS readout, Target Concentration 10 / Phage library screen NGS readout, Target Concentration 30 / Phage library screen NGS readout, Target Concentration 100 / Phage library screen NGS readout, Target Concentration 300 / Phage library screen NGS readout, Target Concentration 1000: RNF31 PUB domain clusters C41-C45; for Phage library screen NGS readout, BLANK: clusters C41-C45

[1] = target concentration 1000, first column
[2] = target concentration 1000, second column

Row | Sequence | Phage library screen NGS readout, Target Concentration 10 | Phage library screen NGS readout, Target Concentration 30 | Phage library screen NGS readout, Target Concentration 100 | Phage library screen NGS readout, Target Concentration 300 | Phage library screen NGS readout, Target Concentration 1000 [1] | Phage library screen NGS readout, Target Concentration 1000 [2] | Phage library screen NGS readout, BLANK (column 1 of 5) | Phage library screen NGS readout, BLANK (column 2 of 5) | Phage library screen NGS readout, BLANK (column 3 of 5) | Phage library screen NGS readout, BLANK (column 4 of 5) | Phage library screen NGS readout, BLANK (column 5 of 5)
1 | DPAIQECYLAAQVCTTY | 0 | 0 | 0 | 4 | 14 | 13 | 0 | 0 | 0 | 0 | 0
2 | DPAAWECHIAAFVCSTY | 1 | 1 | 0 | 2 | 8 | 7 | 0 | 0 | 0 | 0 | 0
3 | DPAMIDCFLAAQVCATY (not fully specified; cysteine pairing not given here) | 0 | 0 | 0 | 1 | 6 | 6 | 0 | 0 | 0 | 0 | 0
4 | DPANFTCRVAADVCSTY | 0 | 0 | 3 | 3 | 26 | 12 | 0 | 0 | 1 | 0 | 0
5 | DPAIQECLLAAATCWTY | 0 | 0 | 0 | 2 | 8 | 4 | 0 | 0 | 0 | 0 | 0
6 | DPAYEDCAWAALYCDMT | 0 | 0 | 0 | 10 | 70 | 64 | 0 | 0 | 0 | 0 | 0
7 | DPAIVQCAWAALYCDMQ (Ac-DPAIVQCAWAALYCDMQ-NH2; bridge 7-14; also: Cys-Cys staple, linker not named) | 0 | 0 | 0 | 7 | 22 | 20 | 0 | 0 | 0 | 0 | 0
8 | DPAYWQCIYAAWDCDQM | 0 | 0 | 1 | 4 | 13 | 6 | 1 | 2 | 2 | 1 | 0
9 | DPAWTQCDWAALYCEDQ | 0 | 1 | 0 | 1 | 7 | 10 | 0 | 0 | 0 | 0 | 0
10 | DPAYDWCMYAAYNCVED | 2 | 1 | 1 | 6 | 41 | 38 | 0 | 0 | 0 | 0 | 0
11 | DPAWWNCLYAAYECNHA | 1 | 0 | 0 | 3 | 9 | 5 | 0 | 0 | 0 | 2 | 0

Continued, values first:

Row | Phage library screen NGS readout, Target Concentration 10 | Phage library screen NGS readout, Target Concentration 30 | Phage library screen NGS readout, Target Concentration 100 | Phage library screen NGS readout, Target Concentration 300 | Phage library screen NGS readout, Target Concentration 1000 [1] | Phage library screen NGS readout, Target Concentration 1000 [2] | Phage library screen NGS readout, BLANK (column 1 of 5) | Phage library screen NGS readout, BLANK (column 2 of 5) | Phage library screen NGS readout, BLANK (column 3 of 5) | Phage library screen NGS readout, BLANK (column 4 of 5) | Phage library screen NGS readout, BLANK (column 5 of 5) | Sequence
12 | 0 | 0 | 0 | 4 | 14 | 8 | 0 | 2 | 0 | 0 | 0 | DPAMQECMDAAIMCTYA
13 | 0 | 1 | 0 | 4 | 9 | 7 | 1 | 1 | 1 | 0 | 0 | DPAYWDCLYAAWSCDIL
14 | 0 | 0 | 0 | 3 | 13 | 8 | 0 | 0 | 1 | 4 | 0 | DPAWQECVIAALVCDTY
15 | 0 | 0 | 4 | 61 | 350 | 353 | 1 | 0 | 3 | 1 | 0 | DPARDWCLYAAYDCYTA (Ac-DPARDWCLYAAYDCYTA-NH2; not fully specified (bridges); cysteine pairing not given here)
16 | 2 | 0 | 0 | 5 | 54 | 34 | 1 | 0 | 0 | 0 | 0 | DPAIAQCMLAAQVCSTY
17 | 2 | 3 | 4 | 47 | 186 | 171 | 2 | 0 | 0 | 3 | 1 | DPALEICWDAAIQCSYV
